This data set can be described thus: soluble on expression in E. coli; label from the status in PepcDB or PDB records.
Consider “PLGSKDNRLLYPKTKIDWGPGENHICLKTPFKNFYVIELFHQAPTFDKTIPLFISDINNSPNLYGIYNYIADHLRHVVLVNNYPVNQINIFGKIVYEQYKEKEFNGVEESYVILVISDFIGIDSKIRVRLSQEQFKEVGLTLDKKNYGKIVELEGEIYNWYDSINVSKKPDRELKVSKITVLSHRPDGLHFEFEQWKKRMEFRKNNLVEPWVFIPTPQRE”, for which the “soluble on expression in E. coli” value is “soluble”. Next, “PLTSTVNGYRNVGYFAQWGVYGRAFQAKQLDVSGTAKNLTHINYSFGNINNQTLTCFMANKAQGTGPNGSDGAGDAWADFGMGYAADKSVSGKADTWDQPLAGSFNQLKQLKAKNPKLKVMISLGGWTWSKNFSKAAATEASRQKLVSSCIDLYIKGNLPNFEGRGGAGAAAGIFDGIDIDWEWPGTNSGLAGNGVDTVNDRANFKALLAEFRKQLDAYGSTNNKKYVLSAFLPANPADIDAGGWDDPANFKSLDFGSIQGYDLHGAWNPTLTGHQANLYDDPADPRAPSKKFSADKAVKKYLAAGIDPKQLGLGLAAYGRGWTGAKNVSPWGPATDGAPGTYETANEDYDKLKTLGTDHYDAATGSAWRYDGTQWWSYDNIATTKQKTDYIVSKGLGGGMWWELSGDRNGELVGAMSDKFRAAAPGPVTEAAPP”: “soluble”. The result for “PQEKLIFTLDSADRAYRVLVEAMNEGTATLASDGTILYCNRQFAELTKMSSGAVVGTSIYGFIAPEDAITFKALLKQKNSVGELKFRAQGGTSVPVYLSISSLQSEGSPSAWCLVVTDL” reads “not soluble”; that for “PRAAGHSEEVLEREASFSLTTIDGEVISLNNVGGDVVILWFMAAWCPSCVYMADLLDRLTEKYREISVIAIDFWTAEALKALGLNKPGYPPPDTPEMFRKFIANYGDPSWIMVMDDGSLVEKFNVRSIDYIVIMDKSSNVLYAGTTPSLGELESVIKSVQGG”, “soluble”. As to “PSGTIVGLYTHTDFAKKLSVDIELNYISMGSLFTMNKDTPEQRDYKVSLGYISLPVNLNYCVYKHIHVQVGIQTLALLTAVTEQKYQNVVTKGKNINDFHAIDAGPTIGCYYQFEKGLQLGVRYYRGIQNVVKENMVLYNTGIQFLLTYQF”, the “soluble on expression in E. coli” value is “not soluble”. The result for “PSLSKEAALVHEALVARGLETPLRPPVHEMDNETRKSLIAGHMTEIMQLLNLDLADDSLMETPHRIAKMYVDEIFSGLDYANFPKITLIENKMKVDEMVTVRDITLTSTSEHHFVTIDGKATVAYIPKDSVIGLSKINRIVQFFAQRPQVQERLTQQILIALQTLLGTNNVAVSIDAVHYCVKARGIRDATSATTTTSLGGLFKSSQNTRHEFLRAVRHHN” reads “soluble”; that for “PSVYDAAAQLTADVKKDLRDSWKVWGSDKKGNGVALMTTLFADNQETIGYFKRLGDVSQGMANDKLRGHSITLMYALQNFIDQLDNPDDLVCVVEKFAVNHITRKISAAEFGKINGPIKKVLASKNFGDKYANAWAKLVAVVQAAL”, “soluble”; that for “PTARRDIRFAWSGDTAGQGWGIDDEGMRTYATMAQHQPDFFIHSGDTIYADGPMKDEVEKDGAVIWKNTTLIDEKRKVAETLAEFRGQWKYNLMDEHVQAMNALCPTFFQWDDHEVVNNWSDAKDLSADDRYTEKSVHVLQSRAARAFHEMTPLRITPAEPGRVYRKISYGPMLDVFFLDLRSYRGPNGASMEDEITDQSRILGAEQLAWIKRELAASTATWKVIASDMPIGLIVWDNWKEKAGAEAISNGDHGPAKGRELEIADLLRFIKSAGVRNTVWFTADVHYTAAHHYSPERAQFQDFDPFWEFVSGPLHAGTFGPNDLDRTFGPEVKFVKAPTPEQGVNLPPSMGLQFFGLVDIDAASQQMKVRLMDRGNTELWSVTLDPVLSAI”, “not soluble”.

Turning to “PTEFLYTSKIAAISWAATGGRQQRVYFQDLNGKIREAQRGGDNPWTGGSSQNVIGEAKLFSPLAAVTWKSAQGIQIRVYCVNKDNILSEFVYDGSKWITGQLGSVGVKVGSNSKLAALQWGGSESAPPNIRVYYQKSNGSGSSIHEYVWSGKWTAGASFGSTVPGTGIGATAIGPGRLRIYYQATDNKIREHCWDSNSWYVGGFSASASAGVSIAAISWGSTPNIRVYWQKGREELYEAAYGGSWNTPGQIKDASRPTPSLPDTFIAANSSGNIDISVFFQASGVSLQQWQWISGKGWSIGAVVPTGTPAGW”, the “soluble on expression in E. coli” value is listed as “soluble”. Next, “PVGYFTMYRFNFKYPPFDNKKIRQAAMYAIGQEDVMKALVGNPKYWQTCASLWGCGTPFETDIGKDMVVPSNIEKARALLKEAGYDNTPILVMHATDVGTLSAQPVVMAQALRKAGFNVNLAAMDWQSVATRRASKAAPAQGGWNIHNTNWYATDIMDPVRSAPAAANGDNAWFGWPDIPEIEALRTRFALSSDPAEQKKLAEEAQRIGIDEGLYVPLGQMSVPTVYTTKLSGLVHAPVFAFWNVKKAP”: “not soluble”; “PVNDEVEAVKNMHLIGQSQVAFREWNQKWVDLSLNSFADIENNLFEAEGYNHSFRFLKASHQIDQIESQITLIEEDIAAIRNALADLEKQESKNSGRVLHALDLFEELQHRVAENSEQYGQALDEIEKQLENIQSEFSQFVTLNSSGDPVEAAVILDNTENHILALSHIVDRVPALVTTLSTELPDQLQDLEAGYRKLIDANYHFVETDIEARFHLLYEAFKKNQENIRQLELDNAEYENGQAQEEINALYDIFTREIAAQKVVENLLATLPTYLQHMKENNTLLGEDIARLNKTYLLPETAASHVRRIQTELESFEAAIVEVTSNQEEPTQAYSVLEENLEDLQTQLKDIEDEQISVSERLTQIEKDDINARQKANVYVNRLHTIKRYMEKRNLPGIPQTFLKLFFTASNNTEDLMVELEQKMINIESVTRVLEIATNDMEALETETYNIVQYATLTEQLLQYSNRYRSFDERIQEAFNEALDIFEKEFDYHASFDKISQALEVAEPGVTNRFVTSYEKTRETI”: “not soluble”; “PVSWVLQQAPTVKGLDIQGAHGSVWQGQASSVRWQRQNLGQVNWDFQWSSLFTGKAEFSVRFGRGSDMNIRGRGLVGYSLSDGLYAENLVASIPASKAVEQARLPVPIGVDGQLELNIRHATYAAPWCKTGEGTLVWSASGIQSPVGSLELGPVIADLKCQDSVLTASGEQTSTQVSSAFSAEMMPNQRYSTKAWFKPGADFPSSMGEQLKWLGQPNAQGQYEFDYKGRF”: “not soluble”. The result for “QAAPSQVVVIRQERAGQTSVSLLWQEPEQPNGIILEYEIKYYEKDKEMQSYSTLKAVTTRATVSGLKPGTRYVFQVRARTSAGCGRFSQAMEVETGKP” reads “soluble”; that for “QCYHGNGQSYRGTFSTTVTGRTCQSWSSMTPHRHQRTPENYPNDGLTMNYCRNPDADTGPWCFTMDPSIRREYCNLTRC”, “soluble”; that for “QEQQQELAQLEMARSALDSLSELICLQDCQGNLLTTNRAFDQFWEGRREEAITATASRVATRKSERKWTTDTQGRSCLLEVNLSSLVSPSGELLGTLSISHDVT”, “not soluble”. The result for “QGMISFTQQNEQEADRIGIQVLQRSGFDPQAMPTFLEKLLDQARYSSRPPEILLTHPLPESRLADARNRANQMRPIVVQSSEDFYLAKVRTLGMYNSGRNQLTSDLLDEWAKGNVRQQRAAQYGRALQAMEANKYDEARKTLQPLLAAEPGNAWYLDLATDIDLGQNKANDAINRLKNARDLRTNPVLQLNLANAYLQGGQPQEAANILNRYTFNNKDDSNGWDLLAQAEAALNNRDQELAARAEGYALAGRLDQAISLLSSASS” reads “not soluble”; that for “QKPKLLYCSNGGYFLRIFPDGKVDGTRDRSDPYIQLQFYAESVGEVYIKSLETGQYLAMDSDGQLYASQSPSEECLFLERLEENNYNTYKSKVHADKDWFVGIKKNGKTKPGSRTHFGQKAILFLPLPVSSD”, “soluble”. Take “QPVACPDCGPTLRLVDASGAGLPGDPVDQTVELLTEGKIVAIKGLGGYHLAVDAANDAAVAELRRRKHRDEKPFAVMARDMEAVARFALVDSVEARLLTGPEHPIVLLRKRPSTILSGRVAPANGYIGTMLPYTPLHHLLLEERFAALVMTSGNLSDEPISYRDDEAVERLSAIADAFLVHDREIRTRIDDSVIRVFRGSPLFLRRSRGYVPREVRLPVEIP”: the “soluble on expression in E. coli” value was “not soluble”. For the sequence “QTLTEEEVLKKLDKEQMRASFEDMRRIMPDLGFEAKGYALSFEQLAQLKIPVIVYLKYRKDDHFSVLRGIDGNTVLLADPSLGHVSMSRAQFLDAWQTREGNLAGKILAVIPKKAETISNKLFFTQHPKRQTEFTVGQIRQARAE”, the “soluble on expression in E. coli” value is given as “not soluble”. Next, “QVEFYFSEFNFPYDRFLRTTAEKNDGWVPISTIATFNRMKKYRPVDKVIEALRSSEILEVSADGENVKRRVPLDLTAARNARIEQNQRTLAVMNFPHEDVEASQIPELQENLEAFFKKLGEINQVRLRRDHRNKKFNGTVLVEFKTIPECEAFLKSYSNDDESNEILSYEGKKLSVLT”: “not soluble”; “QVPPSFFQRIYRYHREHGGRFGTVHDVGAGIGPYAGELRSQFPHVIVSDIVPKNVQLAEAHLGRDGFRYRAAPVEVADDLPPGSVDLAFATNVMHFADQHAAMQAIATQLRPGGTFACAGFGPARFDDPDIQDVWERISQQGGRILLGMAEHPPDTINVMSRSSKEYNVAPLEPQWFRPGALRIRLNMAQGGITGLLPPERQQEVTDPDFAGPRDVVVYETNEEWRFETDWEGFLQHFRSFPHAGADPAAFTGLLQELKDLLDEGRCLRGCWPATLILATR”: “not soluble”; “QVQLQESGPGLVKPSETLSLTCTVSGASISSYYWSWIRQPPGKGLEWIGYIGGEGSTNYNPSLKSRVTISVDTSKNQFSLKLRSVTAADTAVYYCARERLGIGDYWGQGTLVTVSSASTKGPSVFPLAPSSKSTSGGTAALGCLVKDYFPEPVTVSWNSGALTSGVHTFPAVLQSSGLYSLSSVVTVPSSSLGTQTYICNVNHKPSNTKVDKKVEPK”: “soluble”. In the case of “QYFTGGLSLEPSNQAGFSQSQSASNTAAQDENAQFVAAILGTTETVWNQLLQGQYVEPKLVLYRNMTSTGCGMGQAQSGPFYCPADGKVYIDLSFLEELKKLGASGDFAFAYVIAHEVGHHVQNLLGTSTKVRQAQQAAGKAQANQLSVALELQADCYAGVWGHYVDRQLNLLEPGDVEEGIAAASAVGDDRLQKMAGRAVQPEAFTHGSSADRVKWFNIGFASGKPASCNTF”, the “soluble on expression in E. coli” value is given as “not soluble”. Next, “QYRHLLDLQPMLEALSESSFLNQPVEGHGPLGIIAFGIGYNYAMEARKAHSIECRLLKIGQYPLPRTQVNELFEACSEVLVVEEGYPVYEELFRGYFGSAKVRGRMDGTLPRDGELTTDLVAAALGVKPPETATTPEIVVGRPPELCKGCGHRDMFDAINIAIKENADHHVFSDIGCYTLGALPPYNAIHTCVDMGAAITMAKGAADAGLRPAVCVIGDSTFAHSGMTGLLDAVNDRTPVTVIIADNNTTAMTGGQCSSASGSKLVNICIGLGVEEA”: “not soluble”. Take “QYRHMIGQDAGYKAAGLYYVPIESLDQQQLPVVIEKLKALPEVEGYTLTTALPASSGQSGDNLIDPVTDRELINVADLFYVDEHYLKVYDIELLEGKNFDAATEKDREIMLSKKAATELARLMNWKDGVIGKNIILTSFGRVVIRGVYDDLMLRRQHLSPYPEKLPSAIVYGDDWLHYLTIRLRHDDARLLHRVNGILSEADPYKETSFLGVEMELLSRFEAAKTFRNT”: the “soluble on expression in E. coli” value is “not soluble”. The result for “RAGHIEVAEVEGMSFPVKLDTGADVSSINAKDIKLFQKDGKDMVSFTYENDLGMQKAFTREVVDVMKITAKKGEKANVRPVVEMHVKLGELEKKIRVNLQDRGRFHYSMILGKNFLKHGALVASETNYIVTKKPDYEK” reads “not soluble”.

The record behind these values is the DeepSol protein solubility set.
